In US20250171562A1 (ALK ABELL, published 2025) one finds EC50 and Max effect data, which are given here for 8 molecules.

B1: CIgG4B1A1(no linker) (Fc fusion)
chain 1: GPPCPPCPAPEFLGGPSVFLFPPKPKDTLMISRTPEVTCVVVDVSQEDPEVQFNWYVDGVEVHNAKTKPREEQFNSTYRVVSVLTVLHQDWLNGKEYKCKVSNKGLPSSIEKTISKAKGQPREPQVYTLPPCQEEMTKNQVSLWCLVKGFYPSDIAVEWESNGQPENNYKTTPPVLDSDGSFFLYSRLTVDKSRWQEGNVFSCSVMHEALHNHYTQKSLSLSLGKQVQLQESGGGLVQTGGSLRLSCAVHGRTFSNTGMGWFRQAPGNERQFVAIISPSGTSTYYADSVKGRFTISRDPAKNTVYLQMNSLKMDDTAVYYCAASYGSNWSTLRHQRRNEYDAWGQGTQVAVS
chain 2: GPPCPPCPAPEFLGGPSVFLFPPKPKDTLMISRTPEVTCVVVDVSQEDPEVQFNWYVDGVEVHNAKTKPREEQFNSTYRVVSVLTVLHQDWLNGKEYKCKVSNKGLPSSIEKTISKAKGQPREPQVCTLPPSQEEMTKNQVSLSCAVKGFYPSDIAVEWESNGQPENNYKTTPPVLDSDGSFFLVSRLTVDKSRWQEGNVFSCSVMHEALHNHYTQKSLSLSLGKEVQLLESGGGLVQPGGSLRLSCAASGFTFGNYDMAWVRQAPGKRPEWVSSIDTGGDITHYADSVKGRFTISRDNAKNTLYLQMNSLRPEDTAVYWCATDEEYALGPNEFDYYGQGTLVTVSS
B2: CIgG4F6A1(G4S)2 (Fc fusion)
chain 1: GPPCPPCPAPEFLGGPSVFLFPPKPKDTLMISRTPEVTCVVVDVSQEDPEVQFNWYVDGVEVHNAKTKPREEQFNSTYRVVSVLTVLHQDWLNGKEYKCKVSNKGLPSSIEKTISKAKGQPREPQVYTLPPCQEEMTKNQVSLWCLVKGFYPSDIAVEWESNGQPENNYKTTPPVLDSDGSFFLYSRLTVDKSRWQEGNVFSCSVMHEALHNHYTQKSLSLSLGKGGGGSGGGGSDVQLQESGGGLVQAGGSLRLSCAASGLTFGSYDMGWYRQAPGKQRELVGRIRNDGITYYADSVKGRFTMSRDNAKNTVYLQMNSLKPEDTAVYYCAADGTGLGHYDYWGQGTQVTVS
chain 2: GPPCPPCPAPEFLGGPSVFLFPPKPKDTLMISRTPEVTCVVVDVSQEDPEVQFNWYVDGVEVHNAKTKPREEQFNSTYRVVSVLTVLHQDWLNGKEYKCKVSNKGLPSSIEKTISKAKGQPREPQVCTLPPSQEEMTKNQVSLSCAVKGFYPSDIAVEWESNGQPENNYKTTPPVLDSDGSFFLVSRLTVDKSRWQEGNVFSCSVMHEALHNHYTQKSLSLSLGKGGGGSGGGGSEVQLLESGGGLVQPGGSLRLSCAASGFTFGNYDMAWVRQAPGKRPEWVSSIDTGGDITHYADSVKGRFTISRDNAKNTLYLQMNSLRPEDTAVYWCATDEEYALGPNEFDYYGQGTLVTVSS
B3: CIgG4A1B1(G4S)1 (Fc fusion)
chain 1: GPPCPPCPAPEFLGGPSVFLFPPKPKDTLMISRTPEVTCVVVDVSQEDPEVQFNWYVDGVEVHNAKTKPREEQFNSTYRVVSVLTVLHQDWLNGKEYKCKVSNKGLPSSIEKTISKAKGQPREPQVCTLPPSQEEMTKNQVSLSCAVKGFYPSDIAVEWESNGQPENNYKTTPPVLDSDGSFFLVSRLTVDKSRWQEGNVFSCSVMHEALHNHYTQKSLSLSLGKGGGGSQVQLQESGGGLVQTGGSLRLSCAVHGRTFSNTGMGWFRQAPGNERQFVAIISPSGTSTYYADSVKGRFTISRDPAKNTVYLQMNSLKMDDTAVYYCAASYGSNWSTLRHQRRNEYDAWGQGTQVAVS
chain 2: GPPCPPCPAPEFLGGPSVFLFPPKPKDTLMISRTPEVTCVVVDVSQEDPEVQFNWYVDGVEVHNAKTKPREEQFNSTYRVVSVLTVLHQDWLNGKEYKCKVSNKGLPSSIEKTISKAKGQPREPQVYTLPPCQEEMTKNQVSLWCLVKGFYPSDIAVEWESNGQPENNYKTTPPVLDSDGSFFLYSRLTVDKSRWQEGNVFSCSVMHEALHNHYTQKSLSLSLGKGGGGSEVQLLESGGGLVQPGGSLRLSCAASGFTFGNYDMAWVRQAPGKRPEWVSSIDTGGDITHYADSVKGRFTISRDNAKNTLYLQMNSLRPEDTAVYWCATDEEYALGPNEFDYYGQGTLVTVSS
notes: B1 on the hole (437), A1 on the knob (106)
B4: CIgG4F6A1(G4S)3 (Fc fusion)
chain 1: GPPCPPCPAPEFLGGPSVFLFPPKPKDTLMISRTPEVTCVVVDVSQEDPEVQFNWYVDGVEVHNAKTKPREEQFNSTYRVVSVLTVLHQDWLNGKEYKCKVSNKGLPSSIEKTISKAKGQPREPQVYTLPPCQEEMTKNQVSLWCLVKGFYPSDIAVEWESNGQPENNYKTTPPVLDSDGSFFLYSRLTVDKSRWQEGNVFSCSVMHEALHNHYTQKSLSLSLGKGGGGSGGGGSGGGGSDVQLQESGGGLVQAGGSLRLSCAASGLTFGSYDMGWYRQAPGKQRELVGRIRNDGITYYADSVKGRFTMSRDNAKNTVYLQMNSLKPEDTAVYYCAADGTGLGHYDYWGQGTQVTVS
chain 2: GPPCPPCPAPEFLGGPSVFLFPPKPKDTLMISRTPEVTCVVVDVSQEDPEVQFNWYVDGVEVHNAKTKPREEQFNSTYRVVSVLTVLHQDWLNGKEYKCKVSNKGLPSSIEKTISKAKGQPREPQVCTLPPSQEEMTKNQVSLSCAVKGFYPSDIAVEWESNGQPENNYKTTPPVLDSDGSFFLVSRLTVDKSRWQEGNVFSCSVMHEALHNHYTQKSLSLSLGKGGGGSGGGGSGGGGSEVQLLESGGGLVQPGGSLRLSCAASGFTFGNYDMAWVRQAPGKRPEWVSSIDTGGDITHYADSVKGRFTISRDNAKNTLYLQMNSLRPEDTAVYWCATDEEYALGPNEFDYYGQGTLVTVSS
B5: CIgG4B1A1(G2SG2S) (Fc fusion)
chain 1: GPPCPPCPAPEFLGGPSVFLFPPKPKDTLMISRTPEVTCVVVDVSQEDPEVQFNWYVDGVEVHNAKTKPREEQFNSTYRVVSVLTVLHQDWLNGKEYKCKVSNKGLPSSIEKTISKAKGQPREPQVYTLPPCQEEMTKNQVSLWCLVKGFYPSDIAVEWESNGQPENNYKTTPPVLDSDGSFFLYSRLTVDKSRWQEGNVFSCSVMHEALHNHYTQKSLSLSLGKGGSGGSQVQLQESGGGLVQTGGSLRLSCAVHGRTFSNTGMGWFRQAPGNERQFVAIISPSGTSTYYADSVKGRFTISRDPAKNTVYLQMNSLKMDDTAVYYCAASYGSNWSTLRHQRRNEYDAWGQGTQVAVS
chain 2: GPPCPPCPAPEFLGGPSVFLFPPKPKDTLMISRTPEVTCVVVDVSQEDPEVQFNWYVDGVEVHNAKTKPREEQFNSTYRVVSVLTVLHQDWLNGKEYKCKVSNKGLPSSIEKTISKAKGQPREPQVCTLPPSQEEMTKNQVSLSCAVKGFYPSDIAVEWESNGQPENNYKTTPPVLDSDGSFFLVSRLTVDKSRWQEGNVFSCSVMHEALHNHYTQKSLSLSLGKGGSGGSEVQLLESGGGLVQPGGSLRLSCAASGFTFGNYDMAWVRQAPGKRPEWVSSIDTGGDITHYADSVKGRFTISRDNAKNTLYLQMNSLRPEDTAVYWCATDEEYALGPNEFDYYGQGTLVTVSS
B6: CIgG4B1A1(G3S) (Fc fusion)
chain 1: GPPCPPCPAPEFLGGPSVFLFPPKPKDTLMISRTPEVTCVVVDVSQEDPEVQFNWYVDGVEVHNAKTKPREEQFNSTYRVVSVLTVLHQDWLNGKEYKCKVSNKGLPSSIEKTISKAKGQPREPQVYTLPPCQEEMTKNQVSLWCLVKGFYPSDIAVEWESNGQPENNYKTTPPVLDSDGSFFLYSRLTVDKSRWQEGNVFSCSVMHEALHNHYTQKSLSLSLGKGGGSQVQLQESGGGLVQTGGSLRLSCAVHGRTFSNTGMGWFRQAPGNERQFVAIISPSGTSTYYADSVKGRFTISRDPAKNTVYLQMNSLKMDDTAVYYCAASYGSNWSTLRHQRRNEYDAWGQGTQVAVS
chain 2: GPPCPPCPAPEFLGGPSVFLFPPKPKDTLMISRTPEVTCVVVDVSQEDPEVQFNWYVDGVEVHNAKTKPREEQFNSTYRVVSVLTVLHQDWLNGKEYKCKVSNKGLPSSIEKTISKAKGQPREPQVCTLPPSQEEMTKNQVSLSCAVKGFYPSDIAVEWESNGQPENNYKTTPPVLDSDGSFFLVSRLTVDKSRWQEGNVFSCSVMHEALHNHYTQKSLSLSLGKGGGSEVQLLESGGGLVQPGGSLRLSCAASGFTFGNYDMAWVRQAPGKRPEWVSSIDTGGDITHYADSVKGRFTISRDNAKNTLYLQMNSLRPEDTAVYWCATDEEYALGPNEFDYYGQGTLVTVSS
B7: CIgG4B1A1(GS) (Fc fusion)
chain 1: GPPCPPCPAPEFLGGPSVFLFPPKPKDTLMISRTPEVTCVVVDVSQEDPEVQFNWYVDGVEVHNAKTKPREEQFNSTYRVVSVLTVLHQDWLNGKEYKCKVSNKGLPSSIEKTISKAKGQPREPQVYTLPPCQEEMTKNQVSLWCLVKGFYPSDIAVEWESNGQPENNYKTTPPVLDSDGSFFLYSRLTVDKSRWQEGNVFSCSVMHEALHNHYTQKSLSLSLGKGSQVQLQESGGGLVQTGGSLRLSCAVHGRTFSNTGMGWFRQAPGNERQFVAIISPSGTSTYYADSVKGRFTISRDPAKNTVYLQMNSLKMDDTAVYYCAASYGSNWSTLRHQRRNEYDAWGQGTQVAVS
chain 2: GPPCPPCPAPEFLGGPSVFLFPPKPKDTLMISRTPEVTCVVVDVSQEDPEVQFNWYVDGVEVHNAKTKPREEQFNSTYRVVSVLTVLHQDWLNGKEYKCKVSNKGLPSSIEKTISKAKGQPREPQVCTLPPSQEEMTKNQVSLSCAVKGFYPSDIAVEWESNGQPENNYKTTPPVLDSDGSFFLVSRLTVDKSRWQEGNVFSCSVMHEALHNHYTQKSLSLSLGKGSEVQLLESGGGLVQPGGSLRLSCAASGFTFGNYDMAWVRQAPGKRPEWVSSIDTGGDITHYADSVKGRFTISRDNAKNTLYLQMNSLRPEDTAVYWCATDEEYALGPNEFDYYGQGTLVTVSS
B8: CIgG4B1A1(G2S) (Fc fusion)
chain 1: GPPCPPCPAPEFLGGPSVFLFPPKPKDTLMISRTPEVTCVVVDVSQEDPEVQFNWYVDGVEVHNAKTKPREEQFNSTYRVVSVLTVLHQDWLNGKEYKCKVSNKGLPSSIEKTISKAKGQPREPQVYTLPPCQEEMTKNQVSLWCLVKGFYPSDIAVEWESNGQPENNYKTTPPVLDSDGSFFLYSRLTVDKSRWQEGNVFSCSVMHEALHNHYTQKSLSLSLGKGGSQVQLQESGGGLVQTGGSLRLSCAVHGRTFSNTGMGWFRQAPGNERQFVAIISPSGTSTYYADSVKGRFTISRDPAKNTVYLQMNSLKMDDTAVYYCAASYGSNWSTLRHQRRNEYDAWGQGTQVAVS
chain 2: GPPCPPCPAPEFLGGPSVFLFPPKPKDTLMISRTPEVTCVVVDVSQEDPEVQFNWYVDGVEVHNAKTKPREEQFNSTYRVVSVLTVLHQDWLNGKEYKCKVSNKGLPSSIEKTISKAKGQPREPQVCTLPPSQEEMTKNQVSLSCAVKGFYPSDIAVEWESNGQPENNYKTTPPVLDSDGSFFLVSRLTVDKSRWQEGNVFSCSVMHEALHNHYTQKSLSLSLGKGGSEVQLLESGGGLVQPGGSLRLSCAASGFTFGNYDMAWVRQAPGKRPEWVSSIDTGGDITHYADSVKGRFTISRDNAKNTLYLQMNSLRPEDTAVYWCATDEEYALGPNEFDYYGQGTLVTVSS

In this assay the target is T1, recombinant human IgE (human, UniProt P01854-1 1-428).
T1 construct: made in-house (ALK); preloaded on immobilised FcεRIα in the displacement ELISA
T1 sequence (P01854 other isoform, or with tags, fused parts or gaps): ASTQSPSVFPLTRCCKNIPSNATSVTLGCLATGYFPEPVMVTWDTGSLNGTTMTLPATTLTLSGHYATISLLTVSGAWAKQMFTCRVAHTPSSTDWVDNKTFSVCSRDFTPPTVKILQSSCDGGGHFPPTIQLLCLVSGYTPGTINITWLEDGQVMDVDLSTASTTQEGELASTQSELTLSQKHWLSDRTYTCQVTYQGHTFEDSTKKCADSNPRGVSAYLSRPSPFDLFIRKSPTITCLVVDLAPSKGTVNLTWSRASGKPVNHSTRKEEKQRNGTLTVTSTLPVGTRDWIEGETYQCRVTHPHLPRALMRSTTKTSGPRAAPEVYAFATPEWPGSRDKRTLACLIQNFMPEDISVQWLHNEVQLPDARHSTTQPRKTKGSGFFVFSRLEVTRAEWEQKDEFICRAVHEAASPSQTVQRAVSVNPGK
The assay is described as follows: IgE-FcεRIα displacement ELISA. In outline: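 Streptavidin-coated plates carried site-specifically biotinylated recombinant human FcεRIα, loaded with recombinant human IgE at 13 ng/ml. sdAbs in a pM–μM series were added for 1 h, and displaced IgE was washed off. Percent displacement was the signal reduction versus the no-sdAb control, giving EC50 and maximal effect.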
Background: In an ELISA, binding on a coated surface is turned into a signal by an enzyme label.
On to B1, for which the EC50 is 14 nM and the Max effect was found to be 90%.

As to B2, the EC50 was 8 nM and the Max effect amounted to 75%.

Take B3: the EC50 was determined as 2.9 nM and the Max effect is above 95%.

With B4, the EC50 was determined as 3.3 nM and the Max effect was found to be 90%.

For B5, the EC50 stood at 3.8 nM and the Max effect was above 95%.

Take B6: the EC50 stood at 3.1 nM and the Max effect was above 95%.

B7: the EC50 is 9.1 nM and the Max effect was above 95%.

Take B8: the EC50 was determined as 3.4 nM and the Max effect was above 95%.

A word on the EC50: it is the concentration at which the effect is half-maximal.
